This passage reports Kd, koff and kon results from US20160185876A1 (DEVELOPMENT CENTER FOR BIOTECHNOLOGY, published 2016).

Assay [1] has as its target T1, human ENO1 protein (human, UniProt P06733 1-434, limits assumed).
T1 construct: The source and construct of the ENO1 protein used in ELISA and SPR are not described; also called alpha-enolase; enolase-1
The assay can be described thus: SPR, BIAcore 2000, ENO1 injected, 25 degree C. The text has this:
To know the biding kinetics difference among individual antibodies, surface plasmon resonance (SPR) measurement with a BIAcore 2000 (BIAcore, Inc., Piscataway, N.J.) was used as previously described (Karlsson & Falt, (1997) J. Immunol Methods 200:121-133). Carboxymethylated dextran biosensor chips (CMS, BIAcore Inc.) were activated with N-ethyl-N′-(3-dimethylaminopropyl)-carbodiimide hydrochloride (EDC) and N-hydroxysuccinimide (NHS) according to the supplier's instructions. Chimera EN10 mAb was diluted with 10 mM sodium acetate, pH 4.8, into 5 microgram/ml before injection at a flow rate of 20 micro Uminute to achieve approximately 100 response units (RU) of coupled protein followed by the injection of 1M ethanolamine to block unreacted groups. For kinetics measurements, two-fold serial dilutions of ENO1 (0.3125 nM to 40 nM) were injected in HBS-P Biacore running buffer provided by the manufacturer (BIAcore, Inc., Piscataway, N.J.) at 25 degree C. at a flow rate of 25 microL/min, and binding responses on the EN10 mAb were corrected by subtraction of responses on a blank flow cell. Association rates (kon or ka) and dissociation rates (koff or kd) were calculated using a simple one-to-one Langmuir binding model with separate fittings of kon and koff was used. (BIAcore™ Evaluation Software version 3.2).
A general note: In SPR one partner is held on a chip, and binding of the other changes the refractive index at the surface.

Assay [2] addresses T1, human ENO1 protein. Put plainly: ENO1 binding ELISA.

T1 sequence (P06733 whole entry): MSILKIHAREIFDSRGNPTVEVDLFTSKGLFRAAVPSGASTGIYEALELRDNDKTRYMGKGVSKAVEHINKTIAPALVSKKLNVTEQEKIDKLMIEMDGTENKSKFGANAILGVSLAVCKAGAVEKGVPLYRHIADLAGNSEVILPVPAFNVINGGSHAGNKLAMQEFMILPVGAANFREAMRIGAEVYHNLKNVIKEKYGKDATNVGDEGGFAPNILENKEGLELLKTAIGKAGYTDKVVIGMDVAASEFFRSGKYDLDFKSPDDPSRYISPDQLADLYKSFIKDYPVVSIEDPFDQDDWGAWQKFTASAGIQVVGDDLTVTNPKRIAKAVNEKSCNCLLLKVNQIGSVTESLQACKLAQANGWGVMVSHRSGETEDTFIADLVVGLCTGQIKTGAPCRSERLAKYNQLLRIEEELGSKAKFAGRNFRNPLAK

B1: hum EN10 mAb 4D5 (antibody, V domains shown)
VH: EVQLVESGGGLVQPGGSLRLSCAASGYTFTSCVMNWVRQAPGKGLEWVAYINPYNDGTKYNEKFKGRFTISRDDSKNTLYLQMNSLRAEDTAVYYCAREGFYYGNFDNWGQGTLVTVSS
VL: DIQMTQSPSSLSASVGDRVTITCRASENIYSYLTWYQQKPGKAPKLLIYNAKTLPEGVPSRFSGSGSGTDFTLTISSLQPEDFATYYCQHHYGTPYTFGQGTKLEIKR
notes: Humanized variable regions on human IgG; also called humanized EN10 mAb 4D5; 4D5 humanized edition
Usually Kd stands for the equilibrium constant for the complex coming apart. In general, koff refers to a measure of how fast the partners let go of each other. Broadly, the kon is the second-order rate constant of association. On to B1, for which, in the assay with human ENO1 protein [1], the Kd stood at 0.5 nM, the dissociation rate constant (koff) was 0.000176 s⁻¹ and the kon worked out at 351000 M⁻¹ s⁻¹.

B2: hum EN10 mAb IMGT (antibody, V domains shown)
VH: QVQLVQSGAEVKKPGASVKVSCKASGYTFTSCVMNWVRQAPGQGLEWMGYINPYNDGTKYNEKFKGRVTMTTDTSTSTAYMELRSLRSDDTAVYYCAREGFYYGNFDNWGQGTLVTVSS
VL: DIQMTQSPSSLSASVGDRVTITCRASENIYSYLTWYQQKPGKAPKLLIYNAKTLPEGVPSRFSGSGSGTDFTLTISSLQPEDFATYYCQHHYGTPYTFGQGTKLEIKR
notes: Humanized variable regions on human IgG; also called Hum EN10 IMGT; humanized EN10 mAb IMGT
Molecule B2 showed a Kd with human ENO1 protein [2] of 0.0365 nM. In the assay with human ENO1 protein [1], this molecule registered a Kd of 0.219 nM, a koff of 0.000116 s⁻¹ and a kon of 531000 M⁻¹ s⁻¹.
